Reference: US20240116985A1, “STAPLED PEPTIDES AND METHODS THEREOF” (priority 2020, published 2024)
One block for each binder: values may come before it. Starred links: 1 amine or outer side, 2 acyl side, 3 side chain; linkers in the order of their positions; H or OH if unused. Positions of bridges follow the written chain, without caps; N, C: chain ends. Non-standard residues stand in square brackets, D forms with d. Primed or numbered codes have the meaning given here. PyrS2(3) = (S)-3-amino-1-((pent-4-en-1-yloxy)carbonyl)pyrrolidine-3-carboxylic acid, stapling residue, C=CCCCOC(=O)N1CC[C@@](N[*:1])(C(=O)[*:2])C1; PyrS2″ = (S)-3-amino-1-((pent-4-en-1-yloxy)carbonyl)pyrrolidine-3-carboxylic acid (stapling residue), C=CCCCOC(=O)N1CC[C@@](N[*:1])(C(=O)[*:2])C1; B5(4) = 2,2-bis(4-pentenyl)glycine = 2-amino-2-(pent-4-en-1-yl)hept-6-enoic acid (stitching residue), C=CCCCC(CCCC=C)(N[*:1])C(=O)[*:2]; B5(5) = 2,2-bis(4-pentenyl)glycine, 2-amino-2-(pent-4-en-1-yl)hept-6-enoic acid (stitching residue), C=CCCCC(CCCC=C)(N[*:1])C(=O)[*:2]; B5(21) = 2-amino-2-(pent-4-en-1-yl)hept-6-enoic acid, bis(4-pentenyl)glycine (stitching residue), C=CCCCC(CCCC=C)(N[*:1])C(=O)[*:2]; (EtSSpy)AspE = (S)-2-amino-4-oxo-4-(2-(pyridin-2-yldisulfaneyl)ethoxy)butanoic acid, O=C(C[C@H](N[*:1])C(=O)[*:2])OCCSSc1ccccn1; PyrS2 = (S)-3-amino-1-((pent-4-en-1-yloxy)carbonyl)pyrrolidine-3-carboxylic acid, C=CCCCOC(=O)N1CC[C@@](N[*:1])(C(=O)[*:2])C1; B5(12) = 2-amino-2-(pent-4-en-1-yl)hept-6-enoic acid (two olefin side chains), C=CCCCC(CCCC=C)(N[*:1])C(=O)[*:2]; B5(22) = 2-amino-2-(pent-4-en-1-yl)hept-6-enoic acid (two alkene side chains), C=CCCCC(CCCC=C)(N[*:1])C(=O)[*:2]; 4TriA = (S)-2-amino-3-(1H-1,2,3-triazol-4-yl)propanoic acid, O=C([C@H](Cc1c[nH]nn1)N[*:1])[*:2]; B5(3) = 2,2-bis(4-pentenyl)glycine (stitching residue), C=CCCCC(CCCC=C)(N[*:1])C(=O)[*:2]; AspSH = (S)-2-amino-4-mercapto-4-oxobutanoic acid, O=C(C[C@H](N[*:1])C(=O)[*:2])S[*:3]; B5″ = 2,2-bis(4-pentenyl)glycine, stitching residue, C=CCCCC(CCCC=C)(N[*:1])C(=O)[*:2]; B5 = 2-amino-2-(pent-4-en-1-yl)hept-6-enoic acid, C=CCCCC(CCCC=C)(N[*:1])C(=O)[*:2]; Trp(1-Me) = Cn1cc(C[C@H](N)C(=O)O)c2ccccc21; Ala(4-thiazolyl) = N[C@@H](Cc1cscn1)C(=O)O; Phe(2-Cl) = N[C@@H](Cc1ccccc1Cl)C(=O)O; Bta = N[C@@H](Cc1csc2ccccc12)C(=O)O; αAllylPro = C=CC[C@@]1(C(=O)O)CCCN1; tBuAla = CC(C)(C)C[C@H](N)C(=O)O; 3Thi = N[C@@H](Cc1ccsc1)C(=O)O; S8 = C=CCCCCCC[C@](C)(N)C(=O)O; R5 = C=CCCC[C@@](C)(N)C(=O)O; hSer = N[C@@H](CCO)C(=O)O; Nle = CCCC[C@H](N)C(=O)O; Aib = CC(C)(N)C(=O)O

Legend:
[1] = biological target: full-length beta-Catenin (Uniprot ID P35222) (Homo sapiens (Human)) (UniProt P35222); experiment: fluorescence polarization competition, displacement of 5FAM-TCF4 10-53 from full-length beta-catenin
Target sequence in this assay (P35222 2-781 limits assumed): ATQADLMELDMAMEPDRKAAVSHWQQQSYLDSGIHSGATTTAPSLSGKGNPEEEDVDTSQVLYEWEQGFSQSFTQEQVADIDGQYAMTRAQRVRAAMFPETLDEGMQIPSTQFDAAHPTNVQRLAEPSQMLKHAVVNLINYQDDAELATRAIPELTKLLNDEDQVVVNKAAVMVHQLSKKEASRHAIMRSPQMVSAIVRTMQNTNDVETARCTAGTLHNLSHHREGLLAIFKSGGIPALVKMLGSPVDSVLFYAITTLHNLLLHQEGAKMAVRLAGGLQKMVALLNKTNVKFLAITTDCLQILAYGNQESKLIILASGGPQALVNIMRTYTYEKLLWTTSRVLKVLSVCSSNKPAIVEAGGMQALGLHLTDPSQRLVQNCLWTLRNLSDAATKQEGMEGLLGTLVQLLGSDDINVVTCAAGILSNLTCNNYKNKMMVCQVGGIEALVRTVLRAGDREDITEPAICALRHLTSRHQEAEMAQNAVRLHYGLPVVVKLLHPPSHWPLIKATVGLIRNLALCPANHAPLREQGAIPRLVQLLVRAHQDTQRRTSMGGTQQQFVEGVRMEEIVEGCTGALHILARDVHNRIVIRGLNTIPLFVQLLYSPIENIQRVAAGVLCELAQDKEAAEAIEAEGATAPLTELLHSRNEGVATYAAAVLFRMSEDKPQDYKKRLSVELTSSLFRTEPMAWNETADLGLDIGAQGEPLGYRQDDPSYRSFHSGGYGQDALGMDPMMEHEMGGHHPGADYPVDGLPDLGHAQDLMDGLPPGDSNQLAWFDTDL

[2] = biological target: full-length beta-Catenin (Uniprot ID P35222) (Homo sapiens (Human)) (UniProt P35222); experiment: fluorescence polarization competition; full-length beta-catenin; competitor 5FAM-TCF4(10-53) probe
Target sequence in this assay (P35222 whole entry, one chain of several): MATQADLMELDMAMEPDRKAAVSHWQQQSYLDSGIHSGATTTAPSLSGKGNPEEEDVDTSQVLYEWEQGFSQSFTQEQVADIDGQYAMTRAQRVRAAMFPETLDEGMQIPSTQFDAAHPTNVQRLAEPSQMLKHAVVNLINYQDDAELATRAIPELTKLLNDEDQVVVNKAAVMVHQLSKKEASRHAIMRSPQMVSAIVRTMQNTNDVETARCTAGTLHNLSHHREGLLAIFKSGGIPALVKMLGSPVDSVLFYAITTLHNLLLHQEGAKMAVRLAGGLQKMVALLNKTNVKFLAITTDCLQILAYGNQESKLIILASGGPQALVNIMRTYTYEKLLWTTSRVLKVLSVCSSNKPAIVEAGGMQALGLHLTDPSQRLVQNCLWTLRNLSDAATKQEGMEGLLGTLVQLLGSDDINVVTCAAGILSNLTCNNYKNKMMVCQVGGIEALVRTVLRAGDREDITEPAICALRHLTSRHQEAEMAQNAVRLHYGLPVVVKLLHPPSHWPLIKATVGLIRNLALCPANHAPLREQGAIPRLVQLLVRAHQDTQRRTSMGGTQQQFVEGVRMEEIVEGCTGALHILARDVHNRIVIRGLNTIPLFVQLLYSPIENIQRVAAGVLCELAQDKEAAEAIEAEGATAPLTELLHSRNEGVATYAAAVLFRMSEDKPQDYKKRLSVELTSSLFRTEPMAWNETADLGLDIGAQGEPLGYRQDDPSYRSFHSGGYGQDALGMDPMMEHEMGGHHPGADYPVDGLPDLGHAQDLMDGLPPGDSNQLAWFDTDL

[3] = biological target: beta-catenin (Homo sapiens (Human)) (UniProt P35222); experiment: fluorescence polarization competition; full-length beta-catenin with 5FAM-TCF4(10-53) probe as competitor
[4] = biological target: full-length beta-Catenin (Uniprot ID P35222) (Homo sapiens (Human)) (UniProt P35222); experiment: fluorescence polarization competition; 5FAM-TCF4(10-53) probe displaced from full-length beta-catenin
Target sequence in this assay (P35222 2-781 limits assumed): as the sequence (P35222 2-781 limits assumed) above

[5] = biological target: full-length beta-Catenin (Uniprot ID P35222) (Homo sapiens (Human)) (UniProt P35222); experiment: fluorescence polarization competition; 10 nM full-length beta-catenin + 10 nM 5FAM-TCF4(10-53) as competitor probe; peptide titrated
Target sequence in this assay (P35222 2-781 limits assumed): as above

[6] = biological target: full-length beta-Catenin (Uniprot ID P35222) (Homo sapiens (Human)) (UniProt P35222); experiment: fluorescence polarization competition, peptide titrated against full-length beta-catenin + 5FAM-TCF4(10-53)
Target sequence in this assay (P35222 2-781 limits assumed): as above

[7] = biological target: full-length beta-Catenin (Uniprot ID P35222) (Homo sapiens (Human)) (UniProt P35222); experiment: fluorescence polarization competition; 10 nM full-length beta-catenin with 10 nM 5FAM-TCF4(10-53) probe as competitor
Target sequence in this assay (P35222 2-781 limits assumed): as above

beta-catenin (Homo sapiens (Human)), sequence (P35222 whole entry): as the sequence (P35222 whole entry, one chain of several) above

Binder: Ac-[αAllylPro]D[tBuAla][B5(4)]DDAAFL[S8][3Thi][Bta]T-NH2 (staple 1-4, 4-11) [I-1191]
IC50 [1]: 38.5 nM
EC50 [2]: 38.5 nM

Binder: Ac-[αAllylPro]DT[B5(5)]DDAAFL[PyrS2″][3Thi][Bta]L-NH2 (staple 1-4, 4-11) [I-1415]
EC50 [3]: 72 nM
IC50 [4]: 72 nM

Binder: Ac-[αAllylPro]D[tBuAla][B5(4)]DDAAFL[S8][3Thi][Bta][4TriA]-NH2 (staple 1-4, 4-11) [I-1193]
IC50 [1]: 78.5 nM
EC50 [2]: 78.5 nM

Binder: Ac-[αAllylPro]D[tBuAla][B5]DDAAFN[PyrS2″][3Thi][Bta]N-NH2 (staple 1-4, 4-11) [I-816]
EC50 [6]: 5 nM
IC50 [7]: 5 nM

Binder: Ac-[αAllylPro]D[tBuAla][B5]DDAAFN[PyrS2″][3Thi][Bta]T-NH2 (staple 1-4, 4-11) [I-814]
EC50 [6]: 7 nM
IC50 [7]: 7 nM

Binder: Ac-[αAllylPro]D[tBuAla][B5″]DDAAFL[S8][3Thi][Bta]H-NH2 (staple 1-4, 4-11) [I-1195]
IC50 [1]: 29.5 nM
EC50 [2]: 29.5 nM

Binder: Ac-[αAllylPro]D[tBuAla][B5]DDAAFN[PyrS2″][3Thi][Bta][dH]-NH2 (staple 1-4, 4-11) [I-813]
EC50 [6]: 7 nM
IC50 [7]: 7 nM

Binder: Ac-[αAllylPro]D[tBuAla][B5(21)]DD[Aib][Aib]FL[PyrS2″][3Thi][Bta]Q-NH2 (staple 1-4, 4-11; also: later eluting HPLC peak (staple isomer composition)) [I-1180]
IC50 [1]: 87 nM
EC50 [2]: 87 nM

Binder: Ac-[αAllylPro]D[tBuAla][B5(4)]DDAAFL[S8][Phe(2-Cl)][Bta]H-NH2 (staple 1-4, 4-11) [I-1194]
IC50 [1]: 66.5 nM
EC50 [2]: 66.5 nM

Binder: Ac-[αAllylPro]D[tBuAla][B5]DDAAFN[PyrS2″][3Thi][Bta]S-NH2 (staple 1-4, 4-11) [I-815]
EC50 [6]: 5 nM
IC50 [7]: 5 nM

Binder: Ac-[αAllylPro]D[tBuAla][B5(4)]DDAAFL[S8][Phe(2-Cl)][Bta][4TriA]-NH2 (staple 1-4, 4-11) [I-1192]
IC50 [1]: 81.5 nM
EC50 [2]: 81.5 nM

Binder: Ac-PD[tBuAla][R5]DDAAFN[PyrS2″][3Thi][Bta]Q-NH2 (staple 4-11) [I-1182]
IC50 [1]: 144 nM
EC50 [2]: 144 nM

Binder: Ac-[αAllylPro]D[tBuAla][B5(3)]DDAAFT[PyrS2″][3Thi][Bta]Q-NH2 (staple 1-4, 4-11) [I-809]
EC50 [6]: 5 nM
IC50 [7]: 5 nM

Binder: Ac-[αAllylPro]D[Nle][B5(5)]DDAAFL[PyrS2″][Phe(2-Cl)][Bta]L-NH2 (staple 1-4, 4-11; also: staple isomer of later HPLC peak) [I-1421]
EC50 [3]: 134 nM
IC50 [4]: 134 nM

Binder: Ac-[αAllylPro]DS[B5(21)]DDAAFL[PyrS2″][3Thi][Bta]L-NH2 (staple 1-4, 4-11) [I-1414]
EC50 [3]: 84 nM
IC50 [4]: 84 nM

Binder: Ac-[αAllylPro]D[tBuAla][B5(5)]DDAAFL[PyrS2″][Phe(2-Cl)][Bta]L-NH2 (staple 1-4, 4-11) [I-1417]
EC50 [3]: 198 nM
IC50 [4]: 198 nM

Binder: Ac-[αAllylPro]D[tBuAla][B5(3)]DDAA[Ala(4-thiazolyl)]N[PyrS2″][3Thi][Bta]Q-NH2 (staple 1-4, 4-11) [I-812]
EC50 [6]: 33 nM
IC50 [7]: 33 nM

Binder: Ac-[αAllylPro]D[tBuAla][B5(5)]DDAAFL[PyrS2″][Phe(2-Cl)][Bta]L-NH2 (staple 1-4, 4-11; also: staple isomer, earlier eluting HPLC peak) [I-1416]
EC50 [3]: 57 nM
IC50 [4]: 57 nM

Binder: Ac-[αAllylPro]D[tBuAla][B5(4)]DDAAFL[S8][Phe(2-Cl)][Bta][hSer]-NH2 (staple 1-4, 4-11) [I-1196]
IC50 [1]: 85 nM
EC50 [2]: 85 nM

Binder: Ac-[αAllylPro]D[Nle][B5(5)]DDAAFL[PyrS2″][Phe(2-Cl)][Bta]L-NH2 (staple 1-4, 4-11; also: staple isomer, earlier eluting HPLC peak) [I-1420]
EC50 [3]: 124 nM
IC50 [4]: 124 nM

Binder: Ac-PD[tBuAla][R5]DDAAFL[PyrS2″][3Thi][Bta]Q-NH2 (staple 4-11) [I-1181]
IC50 [1]: 297 nM
EC50 [2]: 226 nM

Binder: Ac-[αAllylPro]D[tBuAla][B5(3)]DDAAFT[PyrS2″][3Thi][Bta]H-NH2 (staple 1-4, 4-11) [I-810]
EC50 [6]: 6 nM
IC50 [7]: 6 nM

Binder: Ac-[αAllylPro]D[tBuAla][B5(4)]DDAAFL[S8][Phe(2-Cl)][Bta]S-NH2 (staple 1-4, 4-11) [I-1189]
IC50 [1]: 94.5 nM
EC50 [2]: 94.5 nM

Continued, values first:

IC50 [5]: 135 nM
Binder: Ac-[αAllylPro][AspSH][tBuAla][B5]DDAAFN[PyrS2][Phe(2-Cl)][Bta]Q-NH2 (staple 1-4, 4-11; not fully specified) [I-1722]

EC50 [3]: 71 nM
IC50 [4]: 71 nM
Binder: Ac-[αAllylPro]D[tBuAla][B5(22)]DDAAFL[PyrS2][3Thi][Trp(1-Me)]Q-NH2 (staple 1-4, 4-11) [I-1433]

IC50 [5]: 867 nM
Binder: Ac-[αAllylPro]D[tBuAla][B5(4)]NTAAFN[PyrS2″][3Thi][Bta]-NH2 (staple 1-4, 4-11) [I-1742]

EC50 [3]: 27 nM
IC50 [4]: 27 nM
Binder: Ac-[αAllylPro]D[tBuAla][B5(4)]DDAAFL[PyrS2][3Thi]WS-NH2 (staple 1-4, 4-11) [I-1432]

IC50 [5]: 4390 nM
Binder: Ac-[αAllylPro]D[tBuAla][B5(4)]NTAAFW[PyrS2″][3Thi][Bta]Q-NH2 (staple 1-4, 4-11) [I-1741]

IC50 [5]: 62 nM
Binder: Ac-[αAllylPro][(EtSSpy)AspE][tBuAla][B5]DDAAFN[PyrS2][Phe(2-Cl)][Bta]Q-NH2 (staple 1-4, 4-11; also: earlier-eluting isomer) [I-1723]

EC50 [3]: 83 nM
IC50 [4]: 83 nM
Binder: Ac-[αAllylPro]D[tBuAla][B5(22)]DDAAFL[PyrS2][3Thi][Trp(1-Me)]S-NH2 (staple 1-4, 4-11) [I-1434]

IC50 [5]: 469 nM
Binder: Ac-[αAllylPro]D[tBuAla][B5(4)]NTAAFN[PyrS2″][3Thi][Bta]R-NH2 (staple 1-4, 4-11) [I-1743]

IC50 [5]: 402 nM
Binder: Ac-[αAllylPro]D[tBuAla][B5(4)]NTAAFN[PyrS2″][3Thi][Bta]T-NH2 (staple 1-4, 4-11) [I-1745]

IC50 [5]: 551 nM
Binder: Ac-[αAllylPro][(EtSSpy)AspE][tBuAla][B5]DDAAFN[PyrS2][Phe(2-Cl)][Bta]Q-NH2 (staple 1-4, 4-11; not fully specified) [I-1724]

EC50 [3]: 34 nM
IC50 [4]: 44 nM
Binder: Ac-[αAllylPro]D[tBuAla][B5(4)]DDAAFL[PyrS2][3Thi]WQ-NH2 (staple 1-4, 4-11) [I-1431]

IC50 [5]: 363 nM
Binder: Ac-[αAllylPro]D[tBuAla][B5(4)]NTAAFN[PyrS2″][3Thi][Bta]F-NH2 (staple 1-4, 4-11) [I-1744]

IC50 [5]: 235 nM
Binder: Ac-[αAllylPro]D[tBuAla][B5(4)]NTAAFN[PyrS2″][3Thi][Bta]N-NH2 (staple 1-4, 4-11) [I-1746]
